Experimental data as given in patent US20100196361A1, “Method of inhibition of vascular development using an antibody” (DYAX CORP., priority 2003, published 2010).
Changes are numbered by the printed parent chain.

T1: human Tie1 Fc (Homo sapiens, UniProt P35590)
T1 construct: selected against the Tie1 extracellular domain fused to human Fc or to a histidine purification tag
T1 sequence (P35590 22-759 limits assumed): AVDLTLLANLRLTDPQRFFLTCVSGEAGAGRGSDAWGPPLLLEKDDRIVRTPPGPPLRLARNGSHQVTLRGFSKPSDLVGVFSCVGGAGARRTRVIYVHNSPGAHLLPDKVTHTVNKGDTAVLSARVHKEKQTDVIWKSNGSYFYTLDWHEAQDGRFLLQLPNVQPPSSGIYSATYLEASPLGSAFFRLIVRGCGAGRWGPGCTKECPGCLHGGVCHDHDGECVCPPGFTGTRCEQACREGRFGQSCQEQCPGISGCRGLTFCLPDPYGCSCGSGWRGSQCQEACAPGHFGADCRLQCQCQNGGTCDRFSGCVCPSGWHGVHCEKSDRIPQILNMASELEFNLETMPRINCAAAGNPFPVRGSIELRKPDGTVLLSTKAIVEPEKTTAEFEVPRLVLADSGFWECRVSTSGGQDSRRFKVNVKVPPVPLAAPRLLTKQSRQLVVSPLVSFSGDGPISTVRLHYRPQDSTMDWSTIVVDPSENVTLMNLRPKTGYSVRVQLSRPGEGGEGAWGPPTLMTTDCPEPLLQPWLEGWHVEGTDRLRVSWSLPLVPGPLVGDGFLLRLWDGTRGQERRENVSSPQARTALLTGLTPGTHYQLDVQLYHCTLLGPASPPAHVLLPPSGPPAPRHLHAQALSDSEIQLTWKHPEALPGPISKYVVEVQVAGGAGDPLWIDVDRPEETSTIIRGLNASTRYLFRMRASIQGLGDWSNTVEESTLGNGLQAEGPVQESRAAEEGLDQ

B1: parental E3 Fab: soluble Fab fragment of the parental E3 anti-Tie1 antibody (antibody, V domains shown)
VH: EVQLLESGGGLVQPGGSLRLSCAASGFTFSMYGMVWVRQAPGKGLEWVSVISPSGGNTGYADSVKGRFTISRDNSKNTLYLQVNSLRAEDTAVYYCARAPRGYSYGYYYWGQGTLVTVSSASTKGPSVFPLAPSSKSTSGG
VL: DIQMTQSPLSLSASVGDRVTITCRASQGIGHYLAWYQQKPGKVPKLLIYTASTLQSGVPSRFSGSGSGTDFTLTINSLQPEDVATYYCQQFNSYPHTFGQGTRLDIK
B2: germlined E3 Fab: soluble Fab of E3 with LC framework regions germlined to DPK4; LC variable SEQ ID NO:159 (antibody, V domains shown)
VH: B1 VH
VL: B1 VL with L9S, N76S, D105E

Target: T1, human Tie1 Fc
Experiment: ELISA on recombinant Tie1-Fc
Format: binding
Conditions: soluble Fab 5 or 1 μg per 100 μl; 500 or 50 ng antigen per well
Experimental: To evaluate if the conversion of any of the somatic mutations in the framework of E3 back to germline residues had any effect on binding activity the soluble Fabs were produced. The soluble expression vector containing the parental E3 Fab and the germlined E3 Fab construct were grown overnight at 30° C. in 2×TY broth containing 100 μg/ml ampicillin and 2% glucose and use 4 ml of this overnight culture to inoculate 400 ml of 2×TY broth containing 100 μg/ml ampicillin and 0.1% glucose. Cells were grow at 37° C. until an OD600 of 0.8-1.0, 1 mM IPTG was added and the culture was maintained at 30° C. for 4 hours. The cultures were spun down at 4,000 rpm for 15 min at 4 C. […] Dialyze against PBS using dialysis cassettes (SLIDE-A-LYSER™ Dialysis Cassettes, MWCO 10,000, Pierce, cat. no. 66380) and determine the protein concentration from the absorbance at 280 nm assuming that a 1 mg/ml solution has an absorbance of 0.86. The quality of the preparations can be analyzed by reducing and non-reducing SDS-PAGE.
Wells of an IMMULON™ 2 HB plate coated overnight with 500 ng or 50 ng of purified recombinant human Tie1-Fc target antigen per 100 microliters 0.1 M sodium bicarbonate buffer, pH 8.5. […] After washing the wells seven times 100 microliters TMB-H2O2 solution was added to each well and the plate read at 630 nm in an ELISA.

Molecule	binding to recombinant human Tie1-Fc in ELISA
B1	bound to the recombinant human Tie1-Fc target antigen
B2	bound to the recombinant human Tie1-Fc target antigen
